{"source": "paper PMC7156388", "key": {"[1]": {"tested_on": "His228 (position 228, SCDKTHTCPPC)"}, "[2]": {"tested_on": "His272 (position 272, VVDVSHEDPEV)"}, "[3]": {"tested_on": "His57 (position 57, TWNSGHIDYAD)"}, "[4]": {"tested_on": "His289 (position 289, DGVEVHNAKTK)"}}}
{"substance": "Adalimumab (therapeutic monoclonal IgG1 kappa antibody, anti-TNF) (Homo sapiens (recombinant fully human antibody))", "values": [{"measurement": "pKa", "setting": "[1]", "value": 6.4}, {"measurement": "pKa", "setting": "[2]", "value": 7.0}, {"measurement": "pKa", "setting": "[3]", "value": 6.9}, {"measurement": "pKa", "setting": "[4]", "value": 6.2}]}
